# B1: endostatin: endogenous angiogenesis inhibitor, 18 KD, used as comparator (protein, listed as Homo sapiens)
# chain: IVNLKDELLFPSWEALFSGSEGPLKPGARIFSFDGKDVLRHPTRPQKSVWHGSDPNGRRLTESYCETWRTEAPSATGQASSLLGGRLLGQSAASSHHAYIVL
# Experiments:
# HUVECs = experiment: Migration assay (VEGF-induced chemotaxis, Boyden chamber); type: cell-based, human; conditions: supernatant from plasmid-transfected 293T cells; 10 ng/ml VEGF as chemotactant; FIGS. 2E-2H
# Procedure: After trypsinizing, washing, and diluting cells in M199 medium containing 0.5% FBS, 10,000 cells were seeded on the upper chamber wells, together with supernatant collected from 293T transfected with different plasmid (endostatin, endostatin-CD, and CD). M199 medium containing 2% FBS plus 10 ng/ml VEGF was placed in the lower chamber as a chemotactant. The cell-containing compartments were separated from the chemotactant with polycarbonate filter of 8 um pore size. The chamber was incubated at 37° C. for 6-8 hr. After discarding the non-migrated cells and washing the upper wells with PBS, the filters were scraped with a plastic blade, fixed in 4% formaldehyde in PBS, stained with DAPI fluorescent stain and placed on a glass slide. By using a fluorescent high power field, several independent homogenous images were recorded. Five fields were viewed, and […] were counted and averaged. All assays were performed in triplicate.
# [1] = test system: human umbilical endothelial cells (HUVEC); experiment: Endothelial tube assay; type: cell-based; conditions: supernatant from plasmid-transfected 293T cells; FIGS. 2A-2D
# Procedure: Endothelial tube assay: Matrigel (Collaborative Biomolecules, Bedford, Mass.) was added (50 μl) to each well of a 96-well plate and allowed to polymerize. A suspension of 5,000 human umbilical endothelial cells (HUVEC) in EGM-2 medium without antibiotic was passed into each well coated with matrigel. The cells were treated with supernatants collected from different plasmid (endostatin, endostatin-CD, and CD) transfected 293T cells. All assays were performed in triplicate. Cell were incubated for 12-24 hr at 37° C. and viewed using a microscope. The cells were then photographed. Five fields were viewed, and tubes were counted and averaged.
molecule,measurement,setting,value
B1,HUVEC cell migration,HUVECs,inhibitory effect
same,HUVEC cell tube formation,[1],inhibitory effect

# Source: US7906628B2, “Targeting proteins to deliver therapeutic or diagnostic reagents” (The Board of Regents, The University of Texas System, priority 2002, dated 2011)
